The numbers were not newly measured in publication PMC7077193, which cites them from elsewhere.

The target of this data set is eIF4E (Lactuca sativa).

Take VPg (from UniProt P31999): the Kd was 300 nM.
